Our source for the Mean relative activity values is patent US20220259593A1, “CONTROL OF MAMMALIAN GENE DOSAGE USING CRISPR” (The Regents of the University of California, priority 2019, published 2022).

This data set has as its system K562 CRISPRi cells. As to the kind of experiment: Constant region variant library pooled growth screen, K562. Format: cell-based, human. In outline: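 Library of sgRNA constant-region variants, each paired with 36 targeting sequences (essential-gene and non-targeting), transduced in duplicate into K562 CRISPRi cells, puromycin-selected and grown 4–8 days at >2000× coverage. Activity per variant is its growth phenotype normalised to the same targeting sequence with unmodified constant region.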

The mark [1] stands for this setting: sgRNA constant region variants, activity relative to the original, un-modified constant region cr995.
Where [2] appears, read: sgRNA constant region variant, activity relative to unmodified constant region cr995, mean CRISPRi activity.

B1: cr352 (nucleic acid)
guide: GTTTAAGAGCTAAGCTGGAAACAGCATAGCAAGTTTAAATAAGGCTAGTCCGTTATCACCTTGAAAAAGTGGCACCGAGTCGGTGCT
modifications: listed as DNA, chemistry not fully specified
The molecule B1 showed a Mean relative activity under setting [1] of 1.031.

B2: cr902 (nucleic acid)
guide: GTTTAAGAGCTAAGCTGGAAACAGCATAGCAAGTTTAAATAAGGCTAGTCCGTTATCAACTTGAAAAAGTGACACCGAGTCGGTGTT
modifications: listed as DNA, chemistry not fully specified
B2 yielded a Mean relative activity under setting [1] of 1.031.

B3: cr845 (nucleic acid)
guide: GTTTAAGAGCTAAGCTGGAAACAGCATAGCAAGGTTAAATAAAGCTAGTCTGTTATCAACTTGAAAAAGTGGCACCGAGTCGGTGCT
modifications: listed as DNA, chemistry not fully specified
B3 returned a Mean relative activity under setting [1] of 0.004644.

B4: cr472 (nucleic acid)
guide: GTTTAAGAGCTAAGCTGGAAACAGCATAGCAAGGTTAAATAAGGTTAATCCGTTATCAACTTGAAAAAGTGGCACCGAGTCGGTGCT
modifications: listed as DNA, chemistry not fully specified
For the molecule B4, under setting [1], the Mean relative activity is 0.004917.

B5: cr060 (nucleic acid)
guide: GTGCAAGAGCTAAGCTGGAAACAGCATAGCAAGTTTAAATAAGGCTAGTCCGTTATCAACTTGAAAAAGTGGCACCGAGTCGGTGCT
modifications: listed as DNA, chemistry not fully specified
Regarding B5, under setting [1], the Mean relative activity is recorded as 0.005182.

B6: cr094 (nucleic acid)
guide: GATTTAGAGCTAAGCTGGAAACAGCATAGCAAGTTTAAATAAGGCTAGTCCGTTATCAACTTGAAAAAGTGGCACCGAGTCGGTGCT
modifications: listed as DNA, chemistry not fully specified
Molecule B6 displayed a Mean relative activity under setting [1] of 0.004414.

B7: cr309 (nucleic acid)
guide: GTTTAAGAGCTAAGCTGGAAACAGCATAGCAAGGTTAAATAAGGCTAGGCCGTTATCAACTTGAAAAAGTGGCACCGAGTCGGTGCT
modifications: listed as DNA, chemistry not fully specified
Under setting [1], B7 yielded a Mean relative activity of 0.005045.

B8: cr753 (nucleic acid)
guide: GTTTAAGAGCTAAGCTGGAAACAGCATAGCAAGTTTAAATAACGCTAGTCGGTTATCATCTTGAAAAAGAGGAACCGAGTCGGTTCT
modifications: listed as DNA, chemistry not fully specified
Turning to B8, the Mean relative activity under setting [1] came out at 0.004302.

B9: cr203 (nucleic acid)
guide: GTTTAAGAGCTAAGCTGGAAACAGCATAGCAACTTTAAATAAGGCTAGTCCTTTATCAACTTGAAAAAGTGGCACCGAGTCGGTGCT
modifications: listed as DNA, chemistry not fully specified
In the case of B9, the Mean relative activity under setting [1] stood at 0.004333.

B10: cr615 (nucleic acid)
guide: GTTTAAGAGCTAAGCTGGAAACAGCATAGCAAGTTTAAATAAGGCTAGTCCGTTATCAACTTGAAAAAGTGCGTGCGAGTCGGAGGT
modifications: listed as DNA, chemistry not fully specified
Consider B10, for which, under setting [2], the Mean relative activity worked out at 0.006333.

B11: cr537 (nucleic acid)
guide: GTTTAAGAGCTAAGCTGGAAACAGCATAGCAAGCTTAAATTAGGCTAGTCCGTTATCAACTTGAAAAAGTGGCACCGAGTCGGTGCT
modifications: listed as DNA, chemistry not fully specified
Under setting [1], B11 yielded a Mean relative activity of 0.005276.

B12: cr272 (nucleic acid)
guide: GTTTAAGAGCTAAGCTGGAAACAGCATAGCCACTTTAAATAAGGCTAGTCCGTTATCAACTTGAAAAAGTGGCACCGAGTCGGTGCT
modifications: listed as DNA, chemistry not fully specified
In the case of B12, the Mean relative activity under setting [2] was found to be 0.00638.

B13: cr584 (nucleic acid)
guide: GTTTAAGAGCTAAGCTGGAAACAGCATAGCAAGTTTAAATATGGCTAGTCCTTTATCAACTTGAAAAAGTGGCACCGAGTCGGTGCT
modifications: listed as DNA, chemistry not fully specified
Under setting [2], B13 showed a Mean relative activity of 0.005912.

B14: cr281 (nucleic acid)
guide: GTTTAAGAGCTAAGCTGGAAACAGCATAGCAAGTTTAAATAAGGCTAGTCCGTTATCAACTTGAAAAAGTGGCTGGCAGTCCGAGCT
modifications: listed as DNA, chemistry not fully specified
Regarding B14, the Mean relative activity under setting [2] worked out at 0.006802.

B15: cr967 (nucleic acid)
guide: GTTTAAGAGCTAAGCTGGAAACAGCATAGCAAGTTTAAATAACGCTAGTCGGTTATCAACTTGAAAAAGTGGAACCAAGTTGGTTCT
modifications: listed as DNA, chemistry not fully specified
With B15, the Mean relative activity under setting [2] turned out to be 0.006446.

B16: cr400 (nucleic acid)
guide: GTTTAAGAGCTAAGCTGGAAACAGCATAGCAAGGTTAAATAAGGATATTCCGTTATCAACTTGAAAAAGTGGCACCGAGTCGGTGCT
modifications: listed as DNA, chemistry not fully specified
In the case of B16, the Mean relative activity under setting [1] turned out to be 0.00451.

B17: cr660 (nucleic acid)
guide: GTTTAAGAGCTAAGCTGGAAACAGCATAGCAAGTTTAAATAATGCTAGTCCGTTATCAACTTGAAAAAGTGGCACCGAGTCGGTGCT
modifications: listed as DNA, chemistry not fully specified
Take B17: the Mean relative activity under setting [1] came to 0.004102.

B18: cr463 (nucleic acid)
guide: GTTTAAGAGCTAAGCTGGAAACAGCATAGCAAGTTTAAATAACGCTAGTCGGTTATCACCTTGAAAAAGGGGCACCTAGTAGGTGCT
modifications: listed as DNA, chemistry not fully specified
Turning to B18, under setting [2], the Mean relative activity was 0.006799.

B19: cr109 (nucleic acid)
guide: GTTTAAGAGCTAAGCTGGAAACAGCATAGCAAGTTTAAATAAGGCTAGTCCGTTATCAACAAGAAATTGTGGCACCGAGTCGGTGCT
modifications: listed as DNA, chemistry not fully specified
Regarding B19, under setting [1], the Mean relative activity was 1.031.

B20: cr744 (nucleic acid)
guide: GTTTAAGAGCTAAGCTGGAAACAGCATAGCAAGATTAAATCAGGCTAGTCCGTTATCAACTTGTAAAAGTGGCACCGAGTCGGTGCT
modifications: listed as DNA, chemistry not fully specified
With B20, the Mean relative activity under setting [2] was determined as 0.006349.

B21: cr833 (nucleic acid)
guide: GTTTAAGAGCTAAGCTGGAAACAGCATCGCAACTTTAAATAAGGCTAGTCCGTTATCAACTTGAAAAAGTCGCACCGAGTCGGTGCT
modifications: listed as DNA, chemistry not fully specified
Regarding B21, the Mean relative activity under setting [1] came to 0.004215.

B22: cr057 (nucleic acid)
guide: GCTCAAGAGCTAAGCTGGAAACAGCATAGCAAGTTTAAATAAGGCTAGTCCGTTATCAACTTGAAAAAGTGGCACCGAGTCGGTGCT
modifications: listed as DNA, chemistry not fully specified
B22 gave a Mean relative activity under setting [1] of 0.005757.

B23: cr174 (nucleic acid)
guide: GTTTAAGAGCTAAGCTGGAAACAGCATACCAAGTTTAAATAAGGCTAGGCCGTTATCAACTTGAAAAAGTGGCACCGATTCGGTGCT
modifications: listed as DNA, chemistry not fully specified
In turn, B23 returned a Mean relative activity under setting [2] of 0.006669.

B24: cr100 (nucleic acid)
guide: GTTTAAGAGCTAAGCTGGAAACAGCATAGCAAGTTTAAATGAGGCTAGCCCGTTATCAACTTGAAAAAGTGGCACCGAGTCGGTGCT
modifications: listed as DNA, chemistry not fully specified
As for B24, the Mean relative activity under setting [2] turned out to be 0.005923.

B25: cr297 (nucleic acid)
guide: GTTTAAGAGCTAAGCTGGAAACAGCATAGCAAGTTTAAATAAGGCTAGGCCGTTATCAACTTGAAAAAGTCGCACCGAGTCGGTGCT
modifications: listed as DNA, chemistry not fully specified
In the case of B25, the Mean relative activity under setting [1] was 0.004872.

B26: cr706 (nucleic acid)
guide: GTTTAAGAGCTAAGCTGGAAACAGCATAGCAAGGTTAAATAAGGCTAGTCCGTTATCAACTTGAAAAAGTGGCACGGAGTCCGTGCT
modifications: listed as DNA, chemistry not fully specified
Under setting [2], B26 yielded a Mean relative activity of 0.006595.

B27: cr266 (nucleic acid)
guide: GTTTAAGAGCTAAGCTGGAAACAGCATGGCAAGGTTAAATAAGGCGAGTCCGTTATCAACTTGAAAAAGTGGCACCGAGTCGGTGCT
modifications: listed as DNA, chemistry not fully specified
As for B27, under setting [1], the Mean relative activity came to 0.005552.

B28: cr857 (nucleic acid)
guide: GTTTAAGAGCTAAGCTGGAAACAGCATAGCAAGTTTAAATTAGGCTAGTCCGTTATCAACTTGAAAAAGTCGCACCGAGCCGGTGCT
modifications: listed as DNA, chemistry not fully specified
The molecule B28 had a Mean relative activity under setting [1] of 0.004274.

B29: cr849 (nucleic acid)
guide: GTTTAAGAGCTAAGCTGGAAACAGCATAGCAACGTTAAATAAGGCTAGTCCGTTATCAACTTGAAAAAGTGGCACCGAGTCGGTGCT
modifications: listed as DNA, chemistry not fully specified
B29: the Mean relative activity under setting [1] was 0.004706.
